# Measurements published in IntAct's records for PubMed 25910212.
# B1: Emerin (Homo sapiens), P50402 (parent)
# chain: MDNYADLSDTELTTLLRRYNIPHGPVVGSTRRLYEKKIFEYETQRRRLSPPSSSAASSYSFSDLNSTRGDADMYDLPKKEDALLYQSKGYNDDYYEESYFTTRTYGEPESAGPSRAVRQSVTSFPDADAFHHQVHDDDLLSSSEEECKDRERPMYGRDSAYQSITHYRPVSASRSSLDLSYYPTSSSTSFMSSSSSSSSWLTRRAIRPENRAPGAGLGQDRQVPLWGQLLLFLVFVIVLFFIYHFMQAEEGNPF
# partner: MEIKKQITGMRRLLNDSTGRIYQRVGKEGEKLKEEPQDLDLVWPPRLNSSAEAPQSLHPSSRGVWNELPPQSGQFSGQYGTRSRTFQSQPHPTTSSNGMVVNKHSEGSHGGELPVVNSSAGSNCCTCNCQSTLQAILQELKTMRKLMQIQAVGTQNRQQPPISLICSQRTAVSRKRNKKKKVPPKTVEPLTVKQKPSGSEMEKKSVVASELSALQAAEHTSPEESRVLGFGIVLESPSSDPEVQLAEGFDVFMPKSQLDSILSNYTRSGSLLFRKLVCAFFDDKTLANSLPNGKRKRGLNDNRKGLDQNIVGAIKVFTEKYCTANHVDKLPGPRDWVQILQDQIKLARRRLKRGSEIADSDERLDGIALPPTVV
# B2: SWI/SNF-related matrix-associated actin-dependent regulator of chromatin subfamily A member 2 (Homo sapiens), P51531-1 (parent)
# chain: MSTPTDPGAMPHPGPSPGPGPSPGPILGPSPGPGPSPGSVHSMMGPSPGPPSVSHPMPTMGSTDFPQEGMHQMHKPIDGIHDKGIVEDIHCGSMKGTGMRPPHPGMGPPQSPMDQHSQGYMSPHPSPLGAPEHVSSPMSGGGPTPPQMPPSQPGALIPGDPQAMSQPNRGPSPFSPVQLHQLRAQILAYKMLARGQPLPETLQLAVQGKRTLPGLQQQQQQQQQQQQQQQQQQQQQQQPQQQPPQPQTQQQQQPALVNYNRPSGPGPELSGPSTPQKLPVPAPGGRPSPAPPAAAQPPAAAVPGPSVPQPAPGQPSPVLQLQQKQSRISPIQKPQGLDPVEILQEREYRLQARIAHRIQELENLPGSLPPDLRTKATVELKALRLLNFQRQLRQEVVACMRRDTTLETALNSKAYKRSKRQTLREARMTEKLEKQQKIEQERKRRQKHQEYLNSILQHAKDFKEYHRSVAGKIQKLSKAVATWHANTEREQKKETERIEKERMRRLMAEDEEGYRKLIDQKKDRRLAYLLQQTDEYVANLTNLVWEHKQAQAAKEKKKRRRRKKKAEENAEGGESALGPDGEPIDESSQMSDLPVKVTHTETGKVLFGPEAPKASQLDAWLEMNPGYEVAPRSDSEESDSDYEEEDEEEESSRQETEEKILLDPNSEEVSEKDAKQIIETAKQDVDDEYSMQYSARGSQSYYTVAHAISERVEKQSALLINGTLKHYQLQGLEWMVSLYNNNLNGILADEMGLGKTIQTIALITYLMEHKRLNGPYLIIVPLSTLSNWTYEFDKWAPSVVKISYKGTPAMRRSLVPQLRSGKFNVLLTTYEYIIKDKHILAKIRWKYMIVDEGHRMKNHHCKLTQVLNTHYVAPRRILLTGTPLQNKLPELWALLNFLLPTIFKSCSTFEQWFNAPFAMTGERVDLNEEETILIIRRLHKVLRPFLLRRLKKEVESQLPEKVEYVIKCDMSALQKILYRHMQAKGILLTDGSEKDKKGKGGAKTLMNTIMQLRKICNHPYMFQHIEESFAEHLGYSNGVINGAELYRASGKFELLDRILPKLRATNHRVLLFCQMTSLMTIMEDYFAFRNFLYLRLDGTTKSEDRAALLKKFNEPGSQYFIFLLSTRAGGLGLNLQAADTVVIFDSDWNPHQDLQAQDRAHRIGQQNEVRVLRLCTVNSVEEKILAAAKYKLNVDQKVIQAGMFDQKSSSHERRAFLQAILEHEEENEEEDEVPDDETLNQMIARREEEFDLFMRMDMDRRREDARNPKRKPRLMEEDELPSWIIKDDAEVERLTCEEEEEKIFGRGSRQRRDVDYSDALTEKQWLRAIEDGNLEEMEEEVRLKKRKRRRNVDKDPAKEDVEKAKKRRGRPPAEKLSPNPPKLTKQMNAIIDTVINYKDRCNVEKVPSNSQLEIEGNSSGRQLSEVFIQLPSRKELPEYYELIRKPVDFKKIKERIRNHKYRSLGDLEKDVMLLCHNAQTFNLEGSQIYEDSIVLQSVFKSARQKIAKEEESEDESNEEEEEEDEEESESEAKSVKVKIKLNKKDDKGRDKGKGKKRPNRGKAKPVVSDFDSDEEQDEREQSEGSGTDDE
# partner: B1 partner
# B3: Polycomb complex protein BMI-1 (Homo sapiens), P35226 (parent)
# chain: MHRTTRIKITELNPHLMCVLCGGYFIDATTIIECLHSFCKTCIVRYLETSKYCPICDVQVHKTRPLLNIRSDKTLQDIVYKLVPGLFKNEMKRRRDFYAAHPSADAANGSNEDRGEVADEDKRIITDDEIISLSIEFFDQNRLDRKVNKDKEKSKEEVNDKRYLRCPAAMTVMHLRKFLRSKMDIPNTFQIDVMYEEEPLKDYYTLMDIAYIYTWRRNGPLPLKYRVRPTCKRMKISHQRDGLTNAGELESDSGSDKANSPAGGIPSTSSCLPSPSTPVQSPHPQFPHISSTMNGTSNSPSGNHQSSFANRPRKSSVNGSSATSSG
# partner: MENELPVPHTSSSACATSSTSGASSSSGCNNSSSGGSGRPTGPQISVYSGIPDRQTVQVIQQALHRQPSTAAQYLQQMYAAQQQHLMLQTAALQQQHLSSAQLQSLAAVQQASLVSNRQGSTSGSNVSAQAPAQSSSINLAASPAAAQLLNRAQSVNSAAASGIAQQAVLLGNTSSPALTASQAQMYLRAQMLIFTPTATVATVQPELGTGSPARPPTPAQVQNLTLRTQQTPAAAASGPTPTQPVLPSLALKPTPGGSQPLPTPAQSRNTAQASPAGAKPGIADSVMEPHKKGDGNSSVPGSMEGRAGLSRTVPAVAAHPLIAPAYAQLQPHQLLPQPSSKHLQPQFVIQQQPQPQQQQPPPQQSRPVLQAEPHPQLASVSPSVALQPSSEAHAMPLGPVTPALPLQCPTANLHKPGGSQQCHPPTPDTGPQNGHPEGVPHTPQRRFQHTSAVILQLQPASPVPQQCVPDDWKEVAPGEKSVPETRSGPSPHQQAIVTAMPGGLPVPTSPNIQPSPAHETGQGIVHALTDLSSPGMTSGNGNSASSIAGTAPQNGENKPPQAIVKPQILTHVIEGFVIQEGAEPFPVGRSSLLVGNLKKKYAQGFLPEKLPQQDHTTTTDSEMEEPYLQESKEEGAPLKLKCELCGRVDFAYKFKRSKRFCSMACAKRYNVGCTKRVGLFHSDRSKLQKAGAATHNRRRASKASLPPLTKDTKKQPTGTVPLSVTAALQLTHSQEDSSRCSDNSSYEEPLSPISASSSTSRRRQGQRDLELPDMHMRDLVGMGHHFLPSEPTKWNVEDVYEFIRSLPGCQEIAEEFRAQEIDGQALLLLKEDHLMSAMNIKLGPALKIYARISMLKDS
# B4: U4/U6 small nuclear ribonucleoprotein Prp31 (Homo sapiens), Q8WWY3 (parent)
# chain: MSLADELLADLEEAAEEEEGGSYGEEEEEPAIEDVQEETQLDLSGDSVKTIAKLWDSKMFAEIMMKIEEYISKQAKASEVMGPVEAAPEYRVIVDANNLTVEIENELNIIHKFIRDKYSKRFPELESLVPNALDYIRTVKELGNSLDKCKNNENLQQILTNATIMVVSVTASTTQGQQLSEEELERLEEACDMALELNASKHRIYEYVESRMSFIAPNLSIIIGASTAAKIMGVAGGLTNLSKMPACNIMLLGAQRKTLSGFSSTSVLPHTGYIYHSDIVQSLPPDLRRKAARLVAAKCTLAARVDSFHESTEGKVGYELKDEIERKFDKWQEPPPVKQVKPLPAPLDGQRKKRGGRRYRKMKERLGLTEIRKQANRMSFGEIEEDAYQEDLGFSLGHLGKSGSGRVRQTQVNEATKARISKTLQRTLQKQSVVYGGKSTIRDRSSGTASSVAFTPLQGLEIVNPQAAEKKVAEANQKYFSSMAEFLKVKGEKSGLMST
# partner: B3 partner
# B5: Mothers against decapentaplegic homolog 3 (Homo sapiens), P84022 (parent)
# chain: MSSILPFTPPIVKRLLGWKKGEQNGQEEKWCEKAVKSLVKKLKKTGQLDELEKAITTQNVNTKCITIPRSLDGRLQVSHRKGLPHVIYCRLWRWPDLHSHHELRAMELCEFAFNMKKDEVCVNPYHYQRVETPVLPPVLVPRHTEIPAEFPPLDDYSHSIPENTNFPAGIEPQSNIPETPPPGYLSEDGETSDHQMNHSMDAGSPNLSPNPMSPAHNNLDLQPVTYCEPAFWCSISYYELNQRVGETFHASQPSMTVDGFTDPSNSERFCLGLLSNVNRNAAVELTRRHIGRGVRLYYIGGEVFAECLSDSAIFVQSPNCNQRYGWHPATVCKIPPGCNLKIFNNQEFAALLAQSVNQGFEAVYQLTRMCTIRMSFVKGWGAEYRRQTVTSTPCWIELHLNGPLQWLDKVLTQMGSPSIRCSSVS
# partner: B3 partner
# B6: U4/U6 small nuclear ribonucleoprotein Prp31 (Homo sapiens), Q8WWY3 (parent)
# chain: B4 chain
# partner: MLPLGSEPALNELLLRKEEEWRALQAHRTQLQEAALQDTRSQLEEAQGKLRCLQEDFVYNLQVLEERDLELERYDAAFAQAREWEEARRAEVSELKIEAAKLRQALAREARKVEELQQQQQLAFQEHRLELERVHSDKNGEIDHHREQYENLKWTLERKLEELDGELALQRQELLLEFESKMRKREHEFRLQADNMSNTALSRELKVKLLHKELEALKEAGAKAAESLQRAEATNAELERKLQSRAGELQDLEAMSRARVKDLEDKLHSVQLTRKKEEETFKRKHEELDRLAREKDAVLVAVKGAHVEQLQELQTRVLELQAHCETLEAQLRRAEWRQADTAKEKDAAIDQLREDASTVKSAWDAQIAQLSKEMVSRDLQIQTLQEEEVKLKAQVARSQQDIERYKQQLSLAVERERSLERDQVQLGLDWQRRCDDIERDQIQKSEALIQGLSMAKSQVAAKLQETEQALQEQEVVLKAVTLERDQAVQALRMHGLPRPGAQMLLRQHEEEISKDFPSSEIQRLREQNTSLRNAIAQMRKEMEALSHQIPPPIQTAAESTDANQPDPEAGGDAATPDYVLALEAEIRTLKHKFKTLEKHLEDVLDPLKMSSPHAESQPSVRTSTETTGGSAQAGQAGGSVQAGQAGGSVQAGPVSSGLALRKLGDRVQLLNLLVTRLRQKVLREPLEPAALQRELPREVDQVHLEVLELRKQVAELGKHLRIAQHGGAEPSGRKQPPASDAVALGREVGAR
# Variants of: B1
# Details: with BEND7, Q8N7W2-2
row,Variant,effect of a mutation on the interaction
1,D72V,with no effect
2,S54F,with no effect
3,P183T,with no effect

# Variants of: B2
# Details: with BEND7, Q8N7W2-2
row,Variant,effect of a mutation on the interaction
1,D1546E,with no effect

# Variants of: B2
# Details: with BEND7, Q8N7W2-2
# Remark: another data set of the same source
row,Variant,effect of a mutation on the interaction
1,D1546E,with no effect

# Variants of: B3
# Details: with PHC2, Q8IXK0-5
row,Variant,effect of a mutation on the interaction
1,C18Y,disrupting interaction strength

# Variants of: B4
# Details: with PHC2, Q8IXK0-5
row,Variant,effect of a mutation on the interaction
1,L107V,with no effect

# Variants of: B5
# Details: with PHC2, Q8IXK0-5
row,Variant,effect of a mutation on the interaction
1,I170V,with no effect
2,N197I,with no effect

# Variants of: B6
# Details: with CCDC57, Q2TAC2-2
row,Variant,effect of a mutation on the interaction
1,L107V,with no effect
